Experimental data reported in the Immune Epitope Database (IEDB).

Assays:
HLA-B*44:02 = assay: IEDB peptide-MHC binding, purified MHC/competitive/radioactivity; filed as Kd, often an IC50 or EC50 that approximates it; ≥ and ≤ were set here for values at or beyond the usual limits of such assays
HLA-A*02:03 = assay: as above
HLA-A*02:02 = assay: as above
HLA-A*02:06 = assay: as above
HLA-A*02:01 [1] = assay: IEDB peptide-MHC binding, purified MHC/competitive/fluorescence; ≥ and ≤ were set here for values at or beyond the usual limits of such assays
HLA-A*69:01 = assay: IEDB peptide-MHC binding, purified MHC/direct/fluorescence; filed as Kd, often an IC50 or EC50 that approximates it; ≥ and ≤ were set here for values at or beyond the usual limits of such assays
HLA-A*26:01 = assay: IEDB peptide-MHC binding, purified MHC/competitive/radioactivity; filed as Kd, often an IC50 or EC50 that approximates it; ≥ and ≤ were set here for values at or beyond the usual limits of such assays
HLA-A*02:01 [2] = assay: IEDB peptide-MHC binding, purified MHC/direct/fluorescence; filed as Kd, often an IC50 or EC50 that approximates it; ≥ and ≤ were set here for values at or beyond the usual limits of such assays
HLA-B*15:01 = assay: as above
HLA-B*07:02 = assay: as above
HLA-B*40:01 = assay: as above; details: source organism: Rickettsia prowazekii
HLA-B*58:01 = assay: as above; details: source organism: Rickettsia prowazekii
HLA-A*01:01 = assay: as above
[3] = source organism: Vaccinia virus WR
[4] = source organism: SARS coronavirus Tor2
[5] = source organism: Zaire ebolavirus
[6] = source organism: Dengue virus 2 Jamaica/1409/1983
[7] = source organism: Mycobacterium tuberculosis
[8] = source organism: Mammarenavirus lassaense
[9] = source organism: Giardia lamblia ATCC 50803
[10] = source organism: Dengue virus 4 Philippines/H241/1956
[11] = source organism: Salmonella enterica subsp. enterica serovar Typhimurium
[12] = source organism: HIV-1 M:B_ARV2/SF2
[13] = source organism: Bacillus thuringiensis
[14] = source organism: Cryptosporidium parvum

Sequence	Kd (HLA-A*02:03; [3]) [nM]	Kd (HLA-A*02:02; [3]) [nM]	Kd (HLA-A*02:06; [3]) [nM]	also measured
SELFRSRLDSY	–	–	–	Kd (HLA-B*44:02; source organism: Homo sapiens): 5.4 nM
VILPDKIDGL	10800	8090	240	–
PECPSASRAW	–	–	–	Kd (HLA-B*44:02; source organism: Dengue virus 3 Martinique/1243/1999): 1120 nM
TLLCVLAAL	–	–	–	Kd (HLA-A*02:03; [4]): 10.6 nM; Kd (HLA-A*02:02; [4]): 8.1 nM; Kd (HLA-A*02:06; [4]): 7.98 nM
IKKPDGSEC	–	–	–	IC50 (HLA-A*02:01 [1]; source organism: Sudan ebolavirus): ≥ 318000 nM
SITPNNLNKI	≥ 70400	14900	≥ 69800	–
TTLATISTS	–	–	–	IC50 (HLA-A*02:01 [1]; [5]): 6620 nM
ATFRDMLLNV	0.398	7.06	3.03	–
TAEQLSKYV	8900	5220	≥ 23900	–
SILSLETVKM	455	203	806	–
SMVNGVVKL	–	–	–	Kd (HLA-A*69:01; source organism: Dengue virus 1 Singapore/S275/1990): ≥ 20000 nM
ETLETLLLLT	–	–	–	Kd (HLA-A*26:01; [6]): 17400 nM
LLWAFAHRQ	–	–	–	Kd (HLA-A*02:01 [2]; [7]): 551 nM; Kd (HLA-A*69:01; [7]): ≥ 20000 nM
VIADYNYKL	–	–	–	Kd (HLA-A*02:03; [4]): 115 nM; Kd (HLA-A*02:02; [4]): 0.477 nM; Kd (HLA-A*02:06; [4]): 69.1 nM
NCLSLLLSV	–	–	–	Kd (HLA-A*02:03; [8]): 437 nM; Kd (HLA-A*02:02; [8]): 48.7 nM; Kd (HLA-A*02:06; [8]): 630 nM
GMSLLEYGV	–	–	–	Kd (HLA-A*02:01 [2]; [9]): 3.5 nM; Kd (HLA-A*69:01; [9]): ≥ 20000 nM
DVRNDMISY	–	–	–	Kd (HLA-A*26:01; [10]): 431 nM
GVATDVPSA	–	–	–	IC50 (HLA-A*02:01 [1]; [5]): 1460 nM
LVIGVAFLAV	–	–	–	Kd (HLA-A*02:03; [4]): 22.4 nM; Kd (HLA-A*02:02; [4]): 2710 nM; Kd (HLA-A*02:06; [4]): 2.6 nM
TLVPVLEKKV	100	112	498	–
WLKGNISPV	–	–	–	Kd (HLA-B*15:01; [11]): 795 nM; Kd (HLA-B*07:02; [11]): 3110 nM; Kd (HLA-A*02:01 [2]; [11]): 20.5 nM; Kd (HLA-A*69:01; [11]): 536 nM
SAVNMTSRM	–	–	–	Kd (HLA-A*26:01; source organism: Dengue virus 1 Brazil/97-11/1997): 1220 nM
ETMYLTMKAI	25.2	1320	3580	–
ELLEMKYAL	863	952	6010	–
EATFIDVHI	862	1660	3430	–
ENSSAMVQV	–	–	–	IC50 (HLA-A*02:01 [1]; [5]): ≥ 277000 nM

Sequence	Kd (HLA-A*02:03; [3]) [nM]	Kd (HLA-A*02:02; [3]) [nM]	Kd (HLA-A*02:06; [3]) [nM]	also measured
FVYVSVMNFI	17.8	76.5	7.5	–
DISSFYWSL	6870	391	3970	–
MDYHKILTA	–	–	–	IC50 (HLA-A*02:01 [1]; [5]): ≥ 114000 nM
QLSNNKYVL	4940	78.5	10700	–
GTIGAVSLDF	–	–	–	Kd (HLA-A*26:01; [6]): 454 nM
MAFILGIIIT	2830	4680	10300	–
GQFGSGWTW	–	–	–	Kd (HLA-B*40:01): 2870 nM; Kd (HLA-B*15:01; source organism: Rickettsia prowazekii): 138 nM; Kd (HLA-B*58:01): 168 nM
IMAFILGIII	3160	632	3190	–
WLMWFIISIV	–	–	–	Kd (HLA-A*02:03; [4]): 4.72 nM; Kd (HLA-A*02:02; [4]): 246 nM; Kd (HLA-A*02:06; [4]): 107 nM
LTFGWCFKLV	–	–	–	Kd (HLA-A*02:03; [12]): 167 nM; Kd (HLA-A*02:02; [12]): 910 nM; Kd (HLA-A*02:06; [12]): 20.1 nM
ASLIPDATY	–	–	–	Kd (HLA-A*01:01; [8]): 17100 nM
GAAGARGAL	–	–	–	Kd (HLA-B*07:02; source organism: Hepacivirus hominis): 12.8 nM
LTHGADPNA	10500	19400	≥ 29400	–
VLFDLDEDD	–	–	–	IC50 (HLA-A*02:01 [1]; [5]): 3740 nM
ELPYVGDTSM	14200	4130	≥ 29900	–
RLYDYFTRVT	551	2450	691	–
NIREGTHVLL	5510	8880	≥ 34600	–
ELGGGFGTL	–	–	–	Kd (HLA-A*02:01 [2]; [13]): 7000 nM; Kd (HLA-A*69:01; [13]): 680 nM
FLMSFTILCL	–	–	–	Kd (HLA-A*02:03; [4]): 213 nM; Kd (HLA-A*02:02; [4]): 0.821 nM; Kd (HLA-A*02:06; [4]): 74.4 nM
KQIMECSRML	≥ 29600	54.8	59.5	–
STPQGLVKRF	–	–	–	Kd (HLA-A*26:01; [10]): 453 nM
LLEMKYALI	135	354	14900	–
KLIQIEKVL	–	–	–	Kd (HLA-A*02:01 [2]; [14]): 3250 nM; Kd (HLA-A*69:01; [14]): ≥ 20000 nM
ETEQPTLDY	–	–	–	Kd (HLA-A*01:01; source organism: Homo sapiens): 16.3 nM; Kd (HLA-A*69:01; source organism: Homo sapiens): 2890 nM
SLTKLFSYG	–	–	–	IC50 (HLA-A*02:01 [1]; source organism: Variola virus): 8920 nM
VATFRDMLL	9940	2530	7720	–
